Laboratory results as given in article PMC10341776.

Target: chloroplast FOF1-ATP synthase from spinach chloroplasts (spinach (Spinacia oleracea)) (UniProt P06450)
Experiment: SAXS; AEX-purified cFOF1 dialysed overnight against 30 mM HEPES, 2 mM MgCl2, 0.04% (w/v) tPCC-α-M, 450 mM NaCl; room temperature; fit with a mixture of monomers and docked dimers (OLIGOMER); monomer to dimer

Question: “chloroplast FOF1-ATP synthase from spinach chloroplasts, P06450 1-507; P00825 1-498; P05435 42-364; P00833 1-134; P11402 71-257; P06451 1-247; P06453 1-184; P31853 76-222; P69447 1-81” was tested. Which fraction of dimeric cFOF1 (model with F1/F1 dimers) did it give?
Answer: 68%

Question: And the stoichiometry N?
Answer: 2
